# Measurements as given in PMC9854632, “Relationships between the Reversible Oxidation of the Single Cysteine Residue and the Physiological Function of the Mitochondrial Glutaredoxin S15 from Arabidopsis thaliana” (Antioxidants, 2022).
# T1: AtGRXS15 (reduced monomer) (Arabidopsis thaliana, UniProt Q8LBK6)
# T1 construct: gene GRXS15; about 17 kDa on mPEG24 gel
# T1 sequence (Q8LBK6 38-169): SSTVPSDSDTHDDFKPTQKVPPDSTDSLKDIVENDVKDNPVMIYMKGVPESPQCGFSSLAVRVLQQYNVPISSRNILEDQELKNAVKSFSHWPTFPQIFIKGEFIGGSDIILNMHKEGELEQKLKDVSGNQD
# B1: Arabidopsis thaliana mitochondrial glutaredoxin S15 (natural protein, UniProt Q8LBK6 38-169, looked up)
# chain: SSTVPSDSDTHDDFKPTQKVPPDSTDSLKDIVENDVKDNPVMIYMKGVPESPQCGFSSLAVRVLQQYNVPISSRNILEDQELKNAVKSFSHWPTFPQIFIKGEFIGGSDIILNMHKEGELEQKLKDVSGNQD
# notes: single cysteine Cys91 in the CGFS motif; no tag is named; The fractions kept after the last SEC step were the monomeric ones; The dimer seen after oxidation is covalent (intermolecular disulfide); also called AtGRXS15; GRXS15; source: E. coli C41(DE3) with pSBET helper plasmid, purified (ammonium sulfate, SEC, Q-sepharose, Superdex S75); pre-reduced with TCEP
# Columns and labels:
# [1] = molecular target: T1, AtGRXS15 (reduced monomer); test: mBBr fluorescence titration of remaining free thiol; format: binding; details: oxidant concentration for half-maximal protein thiol oxidation, no equilibrium or Michaelis constant; covalent (Cys91); 5 µM protein, 1 h, RT, 30 mM Tris-HCl pH 8.0, 200 mM NaCl
# Cys = details: cited from earlier work
# Cys91 = Cys91 (UniProt position 91, PESPQCGFSSL); test: chemical modification; details: room temperature; not stated (100 mM buffers, no added salt stated); 100 mM citrate buffers from pH 2.0 to 6.0; 100 mM phosphate buffers from pH 6.5 to 8.0; reduced (TCEP pre-reduced, desalted) apo monomer, 10 µM
# [2] = molecular target: the molecule itself; test: non-reducing SDS-PAGE after oxidation and thiol alkylation (mPEG24); pre-reduced AtGRXS15 (13 µM) incubated with 5- or 10-fold molar excess of H2O2, DTTox, GSSG or GSNO for 2 h at RT; TCA precipitation, mPEG24 alkylation, non-reducing SDS-PAGE; dimer mainly with H2O2, to some extent with GSSG and GSNO, no oxidation with DTTox
molecule,measurement,setting,value
N[C@@H](CCC(=O)N[C@@H](CSN=O)C(=O)NCC(=O)O)C(=O)O [GSNO],S0.5,[1],21 ± 1 µM
Glutaredoxin S16 (AtGRXS16) (Arabidopsis thaliana),pKa,Cys,~3.9
"Monothiol glutaredoxin 5, mitochondrial (Grx5) (Saccharomyces cerevisiae)",pKa,Cys,~5.0
"Glutaredoxin S15, mitochondrial (AtGRXS15) (Arabidopsis thaliana)",pKa,Cys91,4.0 ± 0.1
B1,stoichiometry N,[2],2
